According to patent publication US20230287125A1 (LEPU BIOPHARMA, published 2023):

Tests used:
[1] = target: T1, human PD-L1-Fc protein (human, UniProt Q9NZQ7 19-238); assay: ELISA, antibody titrated on coated human PD-L1-Fc, OD 450nm; lower right panel
T1 construct: coating antigen of the ELISAs; also called rhPD-L1-Fc; not shown: Fc
Experimental: (§1) To evaluate antigen binding activity, the humanized antibodies were subjected to ELISA test. Briefly, microtiter plates were coated with human PD-L1-Fc protein at 0.5 μg/ml in PBS, 100 μl/well at 4° C. overnight, then blocked with 200 μl/well of 1% BSA. Three-fold dilutions of humanized antibodies starting from 10 μg/ml were added to each well and incubated for 1 hour at 37° C. The plates were washed with PBS/Tween and then incubated with mouse-anti-human IgG Fab antibody conjugated with Horse Radish Peroxidase (HRP) for 1 hour at 37° C. After washing, the plates were developed with TMB substrate and analyzed by spectrophotometer at OD 450 nm.

[2] = target: T2, human PD-L1-his tag protein (human, UniProt Q9NZQ7 19-238); assay: SPR (Biacore T200), mAb captured on Protein A chip, PD-L1-his injected
T2 construct: also called human PD-L1-His protein; recombinant PD-L1 protein; not shown: his tag
Experimental: The binding of the humanized antibodies to recombinant PD-L1 protein (human PD-L1-his tag) was tested by Biacore using a capture method. […] A serial dilution of human PD-L1-his tag protein was injected over captured antibody for 2 mins at a flow rate of 30 μl/min. The antigen was allowed to dissociate for 1500 s. All the experiment were carried out on a Biacore T200.

[3] = target: T3, human PD-L1 over-expressed on CHOK1 cells (human, UniProt Q9NZQ7 19-290); assay: flow cytometry (MFI) on PDL1-CHOK1 cells; upper right panel
T3 construct: whole, on cells; also called PDL1-CHOK1 cells
Experimental: (§2) To evaluate the antigen binding property, the humanized antibodies were analyzed for their binding to PD-L1 overexpressed on mammalian cells by FACS. Briefly, PDL1-CHOK1 cells were firstly incubated with 3-fold serious diluted humanized antibodies starting at 15 μg/ml at 4° C. for 40 mins. After washed by PBS, the Alexa Fluor® 647 AffiniPure Goat Anti-Human IgG (H+L) antibody was added to each well and incubated at 4° C. for 30 mins. The MFI of Alexa Fluor® 647 was evaluated by FACSCanto.

[4] = target: T1, human PD-L1-Fc protein; assay: receptor blocking ELISA: coated human PD-L1-Fc, blocked ligand biotin-labeled human CD80-Fc (Bio-CD80), OD 450nm [cont'd]
Experimental: (§3) Briefly, microtiter plates were coated with human PD-L1-Fc protein at 0.5 μg/ml in PBS, 100 μl/well at 4° C. overnight, then blocked with 150 μl/well of 1% BSA at 37° C. for 2 hours. […] The plates were washed with PBS/Tween and then incubated with Streptavidin-HRP for 10 mins at 37° C. After washing, the plates were developed with TMB substrate and analyzed by spectrophotometer at OD 450 nm.

[5] = target: T1, human PD-L1-Fc protein; assay: receptor blocking ELISA: coated human PD-L1-Fc, blocked ligand biotin-labeled human PD-1-Fc (Bio-PD1), OD 450nm [cont'd]
Experimental: as §3

[6] = target: T2, human PD-L1-his tag protein; assay: SPR (Biacore), affinity ranking, PDL1-His
[7] = target: T3, human PD-L1 over-expressed on CHOK1 …; assay: flow cytometry (MFI) on PDL1-CHOK1 cells; lower right panel
Experimental: as §2

[8] = target: T1, human PD-L1-Fc protein; assay: ELISA, antibody titrated on coated human PD-L1-Fc, OD 450nm; upper right panel
Experimental: as §1

[9] = target: T1, human PD-L1-Fc protein; assay: receptor blocking ELISA: coated human PD-L1-Fc, blocked ligand biotin-labeled human PD-1-Fc (Bio-PD1), OD 450nm; lower right panel
Experimental: as §3

[10] = target: T1, human PD-L1-Fc protein; assay: receptor blocking ELISA: coated human PD-L1-Fc, blocked ligand biotin-labeled human CD80-Fc (Bio-CD80), OD 450nm; lower right panel
Experimental: as §3

[11] = target: T1, human PD-L1-Fc protein; assay: receptor blocking ELISA: coated human PD-L1-Fc, blocked ligand biotin-labeled human PD-1-Fc (Bio-PD1), OD 450nm; lower left panel (with Hu89C10H8-11)
Experimental: as §3

[12] = target: T1, human PD-L1-Fc protein; assay: receptor blocking ELISA: coated human PD-L1-Fc, blocked ligand biotin-labeled human CD80-Fc (Bio-CD80), OD 450nm; lower right panel (with Hu89C10H8-12)
Experimental: as §3

[13] = target: T1, human PD-L1-Fc protein; assay: receptor blocking ELISA: coated human PD-L1-Fc, blocked ligand biotin-labeled human CD80-Fc (Bio-CD80), OD 450nm; upper left panel (with Hu89C10H8-4)
Experimental: as §3

[14] = target: T3, human PD-L1 over-expressed on CHOK1 …; assay: flow cytometry on PDL1-CHOK1 cells
Experimental: After washing by PBS, Alexa Fluor® 647 AffiniPure Goat Anti-Human IgG (H+L) was added to each well and incubated at 4° C. for 30 mins. Samples were washed twice with FACS buffer. The mean florescence intensity (MFI) of Alexa Fluor® 647 was evaluated by FACSCanto.

[15] = target: T1, human PD-L1-Fc protein; assay: receptor blocking ELISA: coated human PD-L1-Fc, blocked ligand biotin-labeled human CD80-Fc (Bio-CD80), OD 450nm; upper right panel (with Hu89C10H8-7)
Experimental: as §3

[16] = target: mouse PD-L1 protein (mouse, UniProt Q9EP73 19-239); assay: ELISA, coated mouse PD-L1
Experimental: (§4) ELISA testing was carried out to evaluate the binding of chimeric antibodies to human, mouse, rat, and cynomolgus PD-L1, respectively.
(§5) Briefly, microtiter plates were coated with human, mouse, rat and cynomolgus PD-L1 proteins at 0.5 μg/ml in PBS, 100 μl/well at 4° C. overnight, then blocked with 150 μl/well of 1% BSA. Three-fold dilutions of chimeric antibodies starting from 10 μg/ml were added to each well and incubated for 1 hour at 37° C. The plates were washed with PBS/Tween and then incubate with mouse-anti-human IgG Fab antibody conjugated with Horse Radish Peroxidase (HRP) for 30 mins at 37° C. After washing, the plates were developed with TMB substrate and analyzed by spectrophotometer at OD 450 nm.

[17] = target: T1, human PD-L1-Fc protein; assay: competition ELISA, coated human PD-L1-Fc, biotin-labeled human PD-1-Fc as competitor
Experimental: as §3, with “BSA.” for “BSA at 37° C. for 2 hours.”

[18] = target: T1, human PD-L1-Fc protein; assay: ELISA, antibody titrated on coated human PD-L1-Fc, OD 450nm; upper left panel (with Hu89C10H8-1 to -6)
Experimental: as §1

[19] = target: T1, human PD-L1-Fc protein; assay: ELISA, antibody titrated on coated human PD-L1-Fc, OD 450nm; upper right panel (with Hu89C10H8-7 to -12)
Experimental: as §1

[20] = target: cynomolgus PD-L1 protein (cynomolgus, UniProt G7PSE7 19-238); assay: ELISA, coated cynomolgus PD-L1
Experimental: as §4, §5

[21] = target: T1, human PD-L1-Fc protein; assay: receptor blocking ELISA: coated human PD-L1-Fc, blocked ligand biotin-labeled human CD80-Fc (Bio-CD80), OD 450nm; lower left panel (with Hu89C10H8-11)
Experimental: as §3

[22] = target: rat PD-L1 protein (rat, UniProt D4AE25 19-239); assay: ELISA, coated rat PD-L1
Experimental: as §4, §5

[23] = target: T1, human PD-L1-Fc protein; assay: ELISA, coated human PD-L1 (PD-L1-Fc per paragraph 110)
Experimental: as §3, with “1% BSA.” for “1% BSA at 37° C. for 2 hours.”, “with Mouse-anti-human IgG Fab antibody conjugated with Horse Radish Peroxidase (HRP)” for “with Streptavidin-HRP”, “for 30” for “for 10”
as §5

[24] = target: T3, human PD-L1 over-expressed on CHOK1 …; assay: flow cytometry (MFI) on PDL1-CHOK1 cells; lower right panel (with the Hu89C10H8 antibodies)
Experimental: as §2

[25] = target: T1, human PD-L1-Fc protein; assay: ELISA, antibody titrated on coated human PD-L1-Fc, OD 450nm; lower left panel (with Hu89C10H8-13 to -16)
Experimental: as §1

[26] = target: T1, human PD-L1-Fc protein; assay: receptor blocking ELISA: coated human PD-L1-Fc, blocked ligand biotin-labeled human PD-1-Fc (Bio-PD1), OD 450nm; upper left panel (with Hu89C10H8-4)
Experimental: as §3

[27] = target: T1, human PD-L1-Fc protein; assay: receptor blocking ELISA: coated human PD-L1-Fc, blocked ligand biotin-labeled human PD-1-Fc (Bio-PD1), OD 450nm; upper right panel (with Hu89C10H8-7)
Experimental: as §3

[28] = target: T2, human PD-L1-his tag protein; assay: SPR (Biacore T200), mAb captured on Protein A chip, PD-L1-his injected; remark: listed apart in the source
Experimental: A serial dilution of human PD-L1-his tag protein was injected over captured antibody for 2 mins at a flow rate of 30 μl/min. The antigen was allowed to dissociate for 480-1500 s. All the experiment were carried out on a Biacore T200. Data analysis was carried out using Biacore T200 evaluation software.

T2 sequence (Q9NZQ7 19-238 limits assumed): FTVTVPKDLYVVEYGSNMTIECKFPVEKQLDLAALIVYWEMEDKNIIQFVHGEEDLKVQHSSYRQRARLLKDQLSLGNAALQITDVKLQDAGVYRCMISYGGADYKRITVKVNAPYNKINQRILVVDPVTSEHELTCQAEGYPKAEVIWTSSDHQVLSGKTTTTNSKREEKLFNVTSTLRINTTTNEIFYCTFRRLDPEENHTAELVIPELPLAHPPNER
T1 sequence (Q9NZQ7 19-238 limits assumed): as above
T3 sequence (Q9NZQ7 19-290): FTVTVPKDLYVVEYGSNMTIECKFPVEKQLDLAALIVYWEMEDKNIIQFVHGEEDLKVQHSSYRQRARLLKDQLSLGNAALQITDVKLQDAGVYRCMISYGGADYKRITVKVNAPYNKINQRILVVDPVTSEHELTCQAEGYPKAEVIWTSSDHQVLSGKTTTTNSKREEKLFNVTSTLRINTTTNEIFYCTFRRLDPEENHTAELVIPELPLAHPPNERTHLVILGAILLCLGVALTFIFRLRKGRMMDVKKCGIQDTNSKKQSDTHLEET
Sequence of cynomolgus PD-L1 protein (G7PSE7 entry or part of it): as the sequence (Q9NZQ7 19-238 limits assumed) above, with A33T, A34S, S62N, R68Q, Q82R, F173L, T185A, T192I, H215L counted along it
Sequence of mouse PD-L1 protein (Q9EP73 19-239 limits assumed): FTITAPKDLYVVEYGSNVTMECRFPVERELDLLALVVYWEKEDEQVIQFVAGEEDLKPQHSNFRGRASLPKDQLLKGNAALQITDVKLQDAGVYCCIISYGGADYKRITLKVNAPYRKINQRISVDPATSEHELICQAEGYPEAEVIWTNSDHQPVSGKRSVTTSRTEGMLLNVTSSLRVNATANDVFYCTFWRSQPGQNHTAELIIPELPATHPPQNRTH
Sequence of rat PD-L1 protein (D4AE25 entry or part of it limits assumed): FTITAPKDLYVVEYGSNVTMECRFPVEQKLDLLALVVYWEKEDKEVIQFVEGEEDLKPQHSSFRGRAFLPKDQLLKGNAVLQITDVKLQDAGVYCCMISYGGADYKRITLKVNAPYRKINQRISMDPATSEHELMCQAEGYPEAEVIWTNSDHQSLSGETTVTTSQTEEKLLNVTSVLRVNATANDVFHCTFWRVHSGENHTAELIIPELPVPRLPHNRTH

B1: Hu67F3G7-22 (antibody, V domains shown)
VH: EVQLVQSGAEVKKPGASVKVSCKASGYTFTDFWVSWVRQAPGQGLEWMGEIYPNSGVSRYNEKFKGRVTMTVDKSISTAYMELSRLRSDDTAVYYCTKYFGYTYWFGYWGQGTLVTVSS
VL: DIQMTQSPSSLSASVGDRVTITCRASKSVSTYMHWYQQKPGKQPKLLIYSASHLESGVPSRFSGSGSGTDFTLTISSLQPEDFATYYCQQSNELPVTFGGGTKVEIK
notes: humanized
EC50 [1]: 0.0078 µg/mL | Kd [2]: 0.0326 nM | koff [2]: 5.79e-05 s⁻¹ | kon [2]: 1.78e+06 M⁻¹ s⁻¹ | EC50 [3]: 0.118 nM | IC50 [4]: 0.126 µg/mL | IC50 [5]: 0.108 µg/mL | Kd [6]: 0.0435 nM | koff [6]: 7.26e-05 s⁻¹ | kon [6]: 1.67e+06 M⁻¹ s⁻¹

B2: Hu89C10H8-12 (antibody, V domains shown)
VH: EVQLVESGGGLVKPGGSLRLSCAASGFTFSNYWMTWIRQAPGKGLEWVASITNTGSSTFYPDSVKGRFTISRDNAKSSLYLQMNSLRAEDTAVYYCTRDTTIAPFDYWGQGTMVTVSS
VL: DIQMTQSPSSLSASVGDRVTITCKASQNLNEYLNWYQQKPGKAPKRLIYKTNTLQAGIPSRFSGSGSGIDYTLTISSLQPEDFATYYCSQYNSGNTFGQGTKLEIK
notes: humanized
Kd [2]: 0.0952 nM | koff [2]: 5.59e-05 s⁻¹ | kon [2]: 587000 M⁻¹ s⁻¹ | EC50 [7]: 0.131 nM | EC50 [8]: 0.00703 µg/mL | Kd [6]: 0.0968 nM | koff [6]: 7.04e-05 s⁻¹ | kon [6]: 727000 M⁻¹ s⁻¹ | IC50 [9]: 0.0891 µg/mL | IC50 [10]: 0.284 µg/mL

B3: 89C10H8 chimeric mAb (antibody, V domains shown)
VH: EVQLVESGGGLVQPGRSLTLSCVASGFTFSNYWMTWIRQAPGKGLEWVASITNTGSSTFYPDSVKGRFTISRDNTRSTLFLQINSLRSEDTATYYCTRDTTIAPFDYWGQGVMVTVSS
VL: DIQMTQSPSFLSASVGDRVTITCKASQNLNEYLNWYQQKLGEAPKRLIYKTNTLQAGIPSRFSGSGSGIDYTLTISSLQPEDVATYFCSQYNSGNTFGAGTKLELK
notes: chimeric mAb of the hybridoma clone; also called 89C10H8-chimera
IC50 [11]: 0.133 µg/mL | IC50 [12]: 0.382 µg/mL | IC50 [13]: 0.432 µg/mL | EC50 [14]: 0.17 nM | IC50 [15]: 0.438 µg/mL | binding result [16]: no binding (tested: dilutions starting from 10 µg/ml) | IC50 [17]: 0.13 µg/mL | EC50 [18]: 0.012 µg/mL | EC50 [19]: 0.0157 µg/mL | EC50 [20]: 0.00677 µg/mL | IC50 [21]: 0.434 µg/mL | binding result [22]: no binding (tested: dilutions starting from 10 µg/ml) | EC50 [23]: 0.00811 µg/mL | EC50 [24]: 0.118 nM | EC50 [25]: 0.0126 µg/mL | IC50 [26]: 0.12 µg/mL | IC50 [27]: 0.126 µg/mL | Kd [28]: 0.0415 nM | koff [28]: 6.64e-05 s⁻¹ | kon [28]: 1.6e+06 M⁻¹ s⁻¹
